Results from patent US20200239573A1 (CRESCENDO BIOLOGICS, published 2020).

How the values were obtained:
[1] = molecular target: T1, human PD-1 expressed on cells (CHO human PD-1 cells) (human, UniProt Q15116 21-288); test: cell-based or functional assay
[2] = molecular target: T1, human PD-1 expressed on cells (CHO …); test: FMAT 1.57 epitope competition on CHO human PD-1 cells; competitor 1.57-Strep; sample kept 4 days in mouse serum
Method: (§1) For the epitope competition assay reagents were prepared in FMAT assay buffer. […] Plates were incubated for a minimum of 1.5 hours at room temperature then fluorescence measured in the FL2 (502 nm-537 nm) and FL5 (677-800 nm) channels on the Mirrorball plate reader (TTP) following excitation at 488 nm and 640 nm. Data was expressed as a % of the total binding control (i.e. % control) after subtraction of the background signal determined from the non-specific binding control wells.
(§2) Serum stability of VH and multivalent VH constructs was assessed by measurement of their activity following incubation for 0, 1, 4 or 7 days in mouse serum (Sigma M5905).

[3] = molecular target: human PD-1 on primary human CD4+ T cells (human, UniProt Q15116 21-288); test: flow cytometry, PHA-stimulated human CD4+ T cells, donor 4
Sequence of human PD-1 on primary human CD4+ T cells (Q15116 21-288): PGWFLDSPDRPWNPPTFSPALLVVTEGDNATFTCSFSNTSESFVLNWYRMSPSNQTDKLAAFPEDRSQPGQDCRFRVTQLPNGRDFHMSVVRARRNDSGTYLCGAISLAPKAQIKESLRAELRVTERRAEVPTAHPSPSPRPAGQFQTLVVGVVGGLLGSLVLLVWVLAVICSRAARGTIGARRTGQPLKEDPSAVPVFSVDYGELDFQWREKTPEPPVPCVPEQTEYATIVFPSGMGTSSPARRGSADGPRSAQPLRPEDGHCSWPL
Method: Binding of monovalent single domain antibodies and multivalent binding agents to T cells was measured using flow cytometry. […] T-cells were stimulated with 2.5 μg/ml PHA for 2-4 days in RPMI media supplemented with 10% FBS, 2 mM Glutamine, 1× Pen/Strep. Cells were transferred into 96 well plates (75000 per well), blocked for 10 mins with PBS/1% BSA, then incubated with serially diluted VH in staining buffer (PBS/1% BSA) for 1 hour at 4° C. Cells were washed with staining buffer by centrifugation then incubated with 10 μg/ml biotinylated Anti His antibody for 40 mins at 4° C. Cells were washed again then stained with Streptavidin Alexa Fluor-488 (10 μg/ml) and 1:5000 diluted Live Dead near IR stain (Molecular Probes cat no. L10119) for 30 mins at 4° C. After further washing cells were fixed and fluorescence measured by flow cytometry.

[4] = molecular target: T2, cynomolgus PD-1 recombinant protein (cynomolgus, UniProt B0LAJ3 25-170); test: HTRF binding, 2 nM PD-1, anti-Fc cryptate and anti-His-D2
T2 construct: Detected with anti human-Fc cryptate, so probably Fc tagged; also called cyno PD-1; cynomolgus PD-1 (Acro Biosystems cat no. PD-1-05254); not shown: The vendor's carrier tag; It is probably a human Fc, since detection used anti human-Fc cryptate
T2 sequence (B0LAJ3 entry or part of it limits assumed): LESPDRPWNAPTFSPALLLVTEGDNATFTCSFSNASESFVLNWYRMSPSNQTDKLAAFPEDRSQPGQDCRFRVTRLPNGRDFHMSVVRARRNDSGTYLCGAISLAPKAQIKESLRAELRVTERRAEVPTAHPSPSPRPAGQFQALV
Method: (§3) e) Species Cross Reactivity Testing Purified […] were tested for their ability to bind to human PD-1 (R&D Systems cat no. 1086-PD), cynomolgus PD-1 (Acro Biosystems cat no. PD-1-05254) and mouse PD-1 (R&D Systems cat no. 1021-PD) in an HTRF Binding assay format. All reagents and serially diluted VH were prepared in assay buffer containing PBS, 0.1% BSA and 0.4M Potassium Fluoride. Samples or assay buffer (non-specific binding) were incubated with 2 nM human/cynomolgus or mouse PD-1, 1 nM Anti human-Fc Cryptate PAb (Cisbio cat. no. 61HFCKLB) and 30 nM anti His-D2 (CisBio cat no 61HISDLA) in black 384-shallow well assay plates for a minimum of 3 hours at room temperature. Time-resolved fluorescent emission at 620 nm and 665 nm was measured following excitation at 337 nm on the BMG PHERAstar plate reader. The HTRF ratio were calculated ((665 nm emission/620 nm emission)*10000) and the data corrected for (non-specific binding) to give the specific binding signal.

[5] = molecular target: T3, recombinant human PD-1 Fc chimera (human, UniProt Q15116 25-167); test: as above
T3 construct: Bought protein; also called human PD-1-huFc; huPD-1-Fc; not shown: human Fc
T3 sequence (Q15116 25-167 limits assumed, change not shown): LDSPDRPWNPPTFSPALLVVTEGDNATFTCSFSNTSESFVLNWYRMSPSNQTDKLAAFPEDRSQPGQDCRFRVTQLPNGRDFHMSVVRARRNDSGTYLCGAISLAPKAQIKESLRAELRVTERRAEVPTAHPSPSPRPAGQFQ
Method: as §3

[6] = molecular target: T1, human PD-1 expressed on cells (CHO …); test: FMAT 1.57 epitope competition on CHO human PD-1 cells; competitor 1.57-Strep; sample kept 4 days in human serum
[7] = molecular target: T1, human PD-1 expressed on cells (CHO …); test: FMAT 1.57 epitope competition on CHO human PD-1 cells; competitor 1.57-Strep; sample kept 0 days in mouse serum
Method: as §1, §2

[8] = molecular target: T3, recombinant human PD-1 Fc chimera; test: SPR Biacore T200, PD-1-huFc amine-coupled, single cycle kinetics
Method: Binding kinetics of certain VH single domain antibodies binding to human PD-1-huFc were measured by surface plasmon resonance (SPR) technology using Biacore T200 instrument (GE Healthcare). Recombinant human PD-1-huFc was immobilized by standard amine coupling to CM5 sensorschip (GE Healthcare) using in range of 0.1-0.01 mg/ml solution of antigen in 10 mM sodium acetate at pH 5.5. For the reference flow cell, a blank immobilisation was carried out. Single cycle kinetics assays were used to study the interaction, a five point, three-fold dilution series of each Humabody® was made with a top concentration of 30 nM. The binding kinetics were followed by flowing the Humabody® over the chip surface in HBS EP+ buffer at a flow rate of 30 μl/min. The contact time for each of the association steps was 180 seconds and the dissociation step was varied between 1200-3600 seconds. The data was fitted to a 1:1 binding model after double reference subtraction using the Biacore T200 Evaluation software.

T1 sequence (Q15116 21-288): as the sequence (Q15116 21-288) above

Reporter Assay EC50 [1]: 13 nM | IC50 [2]: 4.7 nM | EC50 [3]: 0.9 nM | EC50 [4]: 4.1 nM | EC50 [5]: 2.6 nM | IC50 [6]: 6.1 nM | IC50 [7]: 4.4 nM | Kd [8]: 0.059 nM | koff [8]: 3.67e-05 s⁻¹ | kon [8]: 620000 M⁻¹ s⁻¹
B1: Humabody® 1.92 (VHH)
VHH: EVQLVESGGGLVKPGGSLRLSCAASGFTFSDESMTWMRQAPGKGLEWVSYISSGGGVKFYADSVKGRFTISRDNAKNSLYLQMNSLRAEDTAVYYCAREAPLRLGESPHDAFDISGQGTMVTVSS
notes: human VH single domain antibody
